Measured values: publication PMC11635053, “Development of a homotrimeric PSMA radioligand based on the NOTI chelating platform” (EJNMMI Radiopharmacy and Chemistry, 2024)

What was measured:
in vivo = experiment: in vivo; parameters: species or system mice; conditions: male, NOD/SCID, mouse, iv, total radioactivity
Experimental: The capability of [^68Ga]Ga-9 to delineate PSMA-expressing tumors in vivo was evaluated by small-animal PET imaging at 1 and 2 h p.i. For this, mice bearing LNCaP xenografts (n = 3) were injected with 1–3 MBq (250–500 pmol) [^68Ga]Ga-9 into a tail vein and subjected to micro-PET/CT imaging at 1 h post-injection (p.i.). PSMA specificity was confirmed by co-injection of 2-PMPA (1 µmol mouse^−1). […] LNCaP tumors were clearly visualized by [^68Ga]Ga-9 and only the kidneys and the bladder as the major excretory organs were visible. […] The kidney uptake was 67.86 ± 8.35% IA g^−1 (n = 3) in the normal group vs. 19.9 ± 4.43% IA g^−1 in the blocking group (n = 3). […] The blood uptake was relatively high at 1 h p.i. with 3.62 ± 0.42% IA g^−1. Uptake in the muscles was low with 0.32 ± 0.12% IA g^−1. […]
For PET imaging studies, mice were injected with 100 µL sterile saline formulations of 250–500 pmol [^68Ga]Ga-9 (1–3 MBq) by intravenous tail-vein injection and anesthetized with isoflurane (2–4% in air). […] Image counts per second per voxel (cps voxel^−1) were calibrated to activity concentrations (Bq mL^−1) by measuring a 3.5 cm cylinder phantom filled with a known concentration of radioactivity. […]
Competitive inhibition (blocking) studies were also performed in vivo and measured using static PET imaging to investigate the specificity of the radiotracers for PSMA. […]

[1] = type: in vitro ADME; conditions: 2 h
Experimental: 100 μL of the radiolabeling solution of each ^68Ga-labeled tracer were added to preheated (37 °C) 1000 μL human serum (male, AB, Sigma Aldrich, USA) in triplicates and incubated at 37 °C. At 1 and 2 h, 100 µL aliquots were taken, mixed with 100 µL ice-cold acetonitrile, and centrifuged at 4 G for 5 min at 4 °C. The corresponding filtrates were kept on ice until HPLC analysis. The supernatants were then analyzed by radio-RP-HPLC and fractions of intact compounds were calculated from the HPLC chromatograms. (gradient 4,Gamma-ray detector: 100–900 keV, injection volume: 20 μl). tR ([^68Ga]Ga-7) = 12.1 min, tR ([^68Ga]Ga-8) = 14.4 min, tR ([^68Ga]Ga-9) = 25.2 min.

[2] = tested on: patient with metastatic prostate cancer; experiment: Clinical PET/CT imaging; conditions: human, in vivo
Experimental: PET/CT was performed approximately 1, 2, and 3 h after intravenous injection of 107 MBq of [^68Ga]Ga-9 and 1 h after injection of 113 MBq [^68Ga]Ga-PSMA-11 in a patient with metastatic prostate cancer. Whole body imaging extending from vertex to mid-femur was performed in 3D-ToF mode on a Biograph mCT 40 scanner (Siemens Medical Solutions, Knoxville, TN, USA) with an extended field of view of 21.4 cm. PET acquisition time was 3 min bed position^−1. Low-dose CT acquisition was performed for attenuation correction and anatomical localization using an X-ray tube voltage of 120 kV and a modulation of the tube current (maximal tube current: 30 mA; CARE Dose 4D software Siemens Healthineers, Erlangen, Germany) followed by reconstruction with a soft tissue reconstruction kernel (Bf37) to a slice thickness of 5 mm (increment 2–4 mm). PET emission data were additionally corrected for decay, randoms and scatter and reconstructed applying an iterative 3D ordered subset expectation maximization algorithm (3 iterations; 21 subsets) withGaussian filtering to transaxial resolution of 5 mm at full width at half maximum. The matrix size was 200 × 200 mm and the reconstructed pixel size was 5.0 mm.

[3] = tested on: PSMA-positive LNCaP cells; experiment: Cell uptake / internalization of 68Ga-labeled conjugates in LNCaP cells; type: cell-based, human; conditions: 1 h incubation, 2.5 pmol per 10^6 cells, 68Ga-labeled
Experimental: Next, the cellular uptake of the ^68Ga-labeled conjugates 7, 8, and 9 as well as [^68Ga]Ga-PSMA-11 was determined in PSMA-positive LNCaP cells.
LNCaP cells were seeded (10^6 cells well^−1) in poly-L-lysine coated 6-well plates 24 h before the experiment. Experiments were performed twice in triplicate for each compound. The radiolabeling solutions of [^68Ga]Ga-7, [^68Ga]Ga-8, [^68Ga]Ga-9, and [^68Ga]Ga-PSMA-11 were first diluted with PBS (pH 7.4) to a concentration of […]. 100 µL of this dilution were added to 3900 µL PBS (pH 7.4) to obtain final stock solutions of each radiolabeled compound (0.025 nmol mL^−1).
On the day of the experiment, the medium was replaced by fresh preheated medium (1.4 mL w/o blocking, 1.3 mL with blocking) and the cells incubated for 1 h at 37 °C. Next, the blocking solution was added (100 μL, 2500 pmol) to the corresponding wells. Finally, the corresponding radiolabeled conjugate (100 μL, 2.5 pmol) was added to a final assay volume of 1.5 mL well^−1. After 1 h incubation time, the supernatants were removed and the cells were washed carefully with ice-cold PBS buffer (2 × 1 mL, pH 7.4) followed by a subsequent glycine–HCl washing step (50 mM, pH 2.8, 2 × 1 mL well^−1). Cells were incubated with the glycine–HCl solution for 4 min at r.t. Next, corresponding fractions were transferred into counting tubes. Subsequently, the cells were lysed by adding NaOH (2 × 1 mL well^−1, 0.1 M) and the lysed fractions were also transferred into counting tubes. As standards, 100 µL of each radiolabeled conjugate stock solution (0.025 nmol mL^−1, 2.5 pmol) were pipetted into counting tubes containing 2 mL PBS buffer. The activity of the standards, the surface bound fractions and the internalized fractions were measured in a Gamma counter. Means were calculated and subtracted by the background. The percentages of unspecific and specific cell-surface bound and internalized activity were calculated from the standards.

O=C(O)CC[C@H](NC(=O)N[C@@H](CCCCNC(=O)[C@H](Cc1ccc2ccccc2c1)NC(=O)[C@H]1CC[C@H](CNC(=O)CCCCn2ccnc2CN2CCN(Cc3nccn3CCCCC(=O)NC[C@H]3CC[C@H](C(=O)N[C@@H](Cc4ccc5ccccc5c4)C(=O)NCCCC[C@H](NC(=O)N[C@@H](CCC(=O)O)C(=O)O)C(=O)O)CC3)CCN(Cc3nccn3CCCCC(=O)NC[C@H]3CC[C@H](C(=O)N[C@@H](Cc4ccc5ccccc5c4)C(=O)NCCCC[C@H](NC(=O)N[C@@H](CCC(=O)O)C(=O)O)C(=O)O)CC3)CC2)CC1)C(=O)O)C(=O)O [^nat/68Ga-9, metal not drawn]
tissue to tissue ratio at 1 h (in vivo; Tumor-to-kidney ratio): 0.24 | tissue to tissue ratio at 1 h (in vivo; Tumor-to-liver ratio): 5.17 | Metabolic stability in human serum [1]: no significant degradation | SUVpeak in the parotid gland [2]: 26.7 | SUVpeak in the submandibular gland [2]: 23.5 | SUVpeak kidneys [2]: 33.1 | SUVpeak, first target lesion [2]: 23.7 | SUVpeak, second target lesion [2]: 12.8 | SUVpeak, third target lesion [2]: 10.3 | Cell-surface bound fraction [3]: 1.5 ± 0.5%
